US20260166168A1 (MEDILINK THERAPEUTICS SUZHOU, published 2026)
Blank lines part the entries; values can stand above or below the binder they belong to.

Columns and labels:
[1] = molecular target: T1, recombinant extracellular domain protein of human DLL3 (h.DLL3-ECD-His) (human, UniProt Q9NYJ7 27-492); assay: ELISA, coated hDLL3-ECD-his, murine antibody titrated
T1 construct: extracellular domain; Commercial protein; also called human DLL3 antigen; not shown: His tag
T1 sequence (looked up): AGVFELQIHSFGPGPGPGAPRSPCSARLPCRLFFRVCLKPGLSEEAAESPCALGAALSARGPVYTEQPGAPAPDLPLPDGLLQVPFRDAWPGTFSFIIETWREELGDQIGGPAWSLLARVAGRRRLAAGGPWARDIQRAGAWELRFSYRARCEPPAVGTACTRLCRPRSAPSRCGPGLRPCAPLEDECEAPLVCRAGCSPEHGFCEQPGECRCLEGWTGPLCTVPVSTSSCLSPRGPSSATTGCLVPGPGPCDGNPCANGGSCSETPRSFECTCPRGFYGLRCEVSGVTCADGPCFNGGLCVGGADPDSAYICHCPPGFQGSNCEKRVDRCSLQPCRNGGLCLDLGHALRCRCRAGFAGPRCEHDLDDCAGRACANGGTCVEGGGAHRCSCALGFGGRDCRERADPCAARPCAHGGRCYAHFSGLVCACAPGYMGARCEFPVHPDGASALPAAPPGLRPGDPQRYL

[2] = molecular target: T2, human DLL1 on 293T-hDLL1 cells (human, UniProt O00548 18-723); assay: flow cytometry on 293T-hDLL1 cells, antibody 20 µg/mL
T2 construct: whole, on cells; also called 293T-DLL1; HEK293T-hDLL1
T2 sequence (looked up): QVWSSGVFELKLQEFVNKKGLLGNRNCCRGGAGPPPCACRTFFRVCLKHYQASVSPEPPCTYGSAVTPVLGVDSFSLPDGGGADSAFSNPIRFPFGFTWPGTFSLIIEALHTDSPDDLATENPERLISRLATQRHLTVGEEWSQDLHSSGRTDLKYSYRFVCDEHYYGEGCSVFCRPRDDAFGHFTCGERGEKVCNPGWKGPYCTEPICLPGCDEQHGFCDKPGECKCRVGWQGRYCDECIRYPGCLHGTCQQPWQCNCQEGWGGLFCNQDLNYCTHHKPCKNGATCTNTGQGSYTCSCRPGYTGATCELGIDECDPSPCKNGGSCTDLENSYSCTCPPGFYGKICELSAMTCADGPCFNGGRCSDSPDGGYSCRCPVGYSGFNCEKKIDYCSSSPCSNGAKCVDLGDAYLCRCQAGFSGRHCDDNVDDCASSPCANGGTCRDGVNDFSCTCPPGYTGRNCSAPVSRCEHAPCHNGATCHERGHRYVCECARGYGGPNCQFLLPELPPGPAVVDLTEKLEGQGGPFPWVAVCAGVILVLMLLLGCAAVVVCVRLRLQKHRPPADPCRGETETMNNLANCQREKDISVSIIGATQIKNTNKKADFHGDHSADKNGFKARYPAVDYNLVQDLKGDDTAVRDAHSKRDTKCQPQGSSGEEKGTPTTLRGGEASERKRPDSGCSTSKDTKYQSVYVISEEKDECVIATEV

[3] = molecular target: T3, human DLL4 on 293T-hDLL4 cells (human, UniProt Q9NR61 27-685); assay: flow cytometry on 293T-hDLL4 cells, antibody 20 µg/mL
T3 construct: whole, on cells; also called 293T-DLL4; HEK293T-hDLL4

[4] = molecular target: T4, recombinant extracellular domain protein of cynomolgus monkey DLL3 (cyno.DLL3-ECD-His) (cynomolgus monkey, UniProt A0A2K5WSR1 27-490); assay: ELISA, coated cynoDLL3-ECD-his, murine antibody titrated
T4 construct: extracellular domain; Commercial protein; not shown: His tag
T4 sequence: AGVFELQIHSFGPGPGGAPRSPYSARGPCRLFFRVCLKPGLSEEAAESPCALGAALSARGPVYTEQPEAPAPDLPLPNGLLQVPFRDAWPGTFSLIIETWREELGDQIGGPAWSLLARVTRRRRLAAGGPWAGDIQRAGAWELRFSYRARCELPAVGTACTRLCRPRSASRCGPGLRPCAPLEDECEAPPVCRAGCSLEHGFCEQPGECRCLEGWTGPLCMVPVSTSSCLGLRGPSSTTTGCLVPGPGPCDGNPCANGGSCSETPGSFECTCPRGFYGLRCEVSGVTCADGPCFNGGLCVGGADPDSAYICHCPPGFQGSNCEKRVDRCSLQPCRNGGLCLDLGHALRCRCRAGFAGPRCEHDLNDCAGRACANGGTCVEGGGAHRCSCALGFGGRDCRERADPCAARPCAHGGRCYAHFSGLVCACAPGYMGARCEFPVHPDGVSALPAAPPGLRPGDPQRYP

[5] = molecular target: T1, recombinant extracellular domain …; assay: ELISA, titrated antibody on plate-coated human DLL3, OD450nm
[6] = molecular target: canine canis DLL3-ECD-his antigen protein (canine); assay: ELISA, coated Canis DLL3-his 0.2 µg/mL, antibody titrated
[7] = molecular target: T5, recombinant extracellular domain protein of rat DLL3 (Rat DLL3-His) (rat, UniProt O88671 33-494); assay: ELISA, coated Rat DLL3-his 0.2 µg/mL, antibody titrated
T5 construct: extracellular domain; Commercial protein; not shown: His tag
T5 sequence (looked up): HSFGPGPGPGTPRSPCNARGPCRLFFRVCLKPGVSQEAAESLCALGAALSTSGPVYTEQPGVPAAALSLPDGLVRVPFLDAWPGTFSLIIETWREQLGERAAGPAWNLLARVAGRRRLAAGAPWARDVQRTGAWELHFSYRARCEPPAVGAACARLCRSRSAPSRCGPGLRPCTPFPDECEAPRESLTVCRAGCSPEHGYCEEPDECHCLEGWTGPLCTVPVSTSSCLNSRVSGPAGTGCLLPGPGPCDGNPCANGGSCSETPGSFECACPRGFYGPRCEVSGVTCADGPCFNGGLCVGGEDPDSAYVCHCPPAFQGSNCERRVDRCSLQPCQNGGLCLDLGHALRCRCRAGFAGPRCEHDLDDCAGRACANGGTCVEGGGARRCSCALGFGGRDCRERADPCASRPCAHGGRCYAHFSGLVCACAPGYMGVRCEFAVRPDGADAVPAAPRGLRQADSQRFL

[8] = molecular target: T6, recombinant extracellular domain protein of mouse DLL3 (Mouse DLL3-His) (mouse, UniProt O88516 33-490); assay: ELISA, coated Mouse DLL3-His 0.2 µg/mL, antibody titrated
T6 construct: extracellular domain; Commercial protein; also called mDLL3; not shown: His tag
T6 sequence (looked up): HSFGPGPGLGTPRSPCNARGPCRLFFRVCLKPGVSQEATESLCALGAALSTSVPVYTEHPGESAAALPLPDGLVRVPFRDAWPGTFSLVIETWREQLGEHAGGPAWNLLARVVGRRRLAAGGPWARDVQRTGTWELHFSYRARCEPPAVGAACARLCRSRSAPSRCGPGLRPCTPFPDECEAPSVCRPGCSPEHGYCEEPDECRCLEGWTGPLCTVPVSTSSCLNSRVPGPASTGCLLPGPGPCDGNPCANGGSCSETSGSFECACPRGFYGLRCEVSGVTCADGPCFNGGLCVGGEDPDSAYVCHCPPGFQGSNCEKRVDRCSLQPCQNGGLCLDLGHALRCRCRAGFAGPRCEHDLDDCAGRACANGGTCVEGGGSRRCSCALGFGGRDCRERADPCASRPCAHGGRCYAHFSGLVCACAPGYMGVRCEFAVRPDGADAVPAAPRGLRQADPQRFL

[9] = molecular target: T1, recombinant extracellular domain …; assay: ELISA, coated h.DLL3-ECD-his 0.2 µg/mL, antibody titrated
[10] = molecular target: T4, recombinant extracellular domain …; assay: ELISA, coated cyno.DLL3-ECD-his 0.2 µg/mL, antibody titrated

T3 sequence (Q9NR61 27-685): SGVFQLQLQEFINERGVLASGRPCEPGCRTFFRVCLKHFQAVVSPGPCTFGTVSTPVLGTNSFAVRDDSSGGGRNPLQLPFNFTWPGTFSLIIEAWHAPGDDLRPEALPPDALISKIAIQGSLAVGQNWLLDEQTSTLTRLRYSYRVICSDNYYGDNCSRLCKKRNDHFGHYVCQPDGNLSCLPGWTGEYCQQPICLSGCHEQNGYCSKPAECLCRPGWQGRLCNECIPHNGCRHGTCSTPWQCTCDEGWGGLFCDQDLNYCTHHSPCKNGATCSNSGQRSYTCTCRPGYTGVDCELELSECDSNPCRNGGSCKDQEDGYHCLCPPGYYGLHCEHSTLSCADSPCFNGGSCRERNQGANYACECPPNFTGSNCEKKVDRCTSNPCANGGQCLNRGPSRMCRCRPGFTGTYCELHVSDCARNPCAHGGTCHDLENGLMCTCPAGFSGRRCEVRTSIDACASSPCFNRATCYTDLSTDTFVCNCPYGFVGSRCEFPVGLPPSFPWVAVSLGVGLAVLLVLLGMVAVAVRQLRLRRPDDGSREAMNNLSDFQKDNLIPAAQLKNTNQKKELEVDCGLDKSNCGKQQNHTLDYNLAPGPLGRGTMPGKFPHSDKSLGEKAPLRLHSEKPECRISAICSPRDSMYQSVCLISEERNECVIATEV

B2: DL306 (antibody, V domains shown)
VH: EVQLQQSGPELVKPGASVKMSCRASGYTFTDYYMKWVKQSHGKSLEWIGDINPNNGDTFYNQKFKGKATLTIDKSSSTAYMQLNSLTSDDSAVYYCARDGNYAYFDYWGQGTTLTVSS
VL: DIVLTQSPASLAVSLGQRATISCRASKSVSTSGYSYMHWYQQKPGQPPKLLIFLASNLESGVPARFSGSGSGTDFTLNIHPVEEEDAATYYCQHSRHLPWTFGGGTKLEIK
EC50 (read off the curve) [5]: ~5 ng/mL

B3: DL309 (antibody, V domains shown)
VH: QVQLQQSGGDLMKPGASVKISCKAAGYTFSNYYIEWVKQRPGHGLEWIGEILPGSGSTTYNEKFKGKASFTADTSSNTAYMQLSSLTSEDSAVYYCARWGAREPGFPYWGQGTLVTVSA
VL: DIVMTQSQKFMSTSVGDRVSVTCKASQNVGTNVAWYQQKPGQSPKALIYSASYRYSGVPDRFTGSGSGTDFTLTISNVQSEDLAEYFCQQYNNYPLTFGAGTKLELK
EC50 (read off the curve) [5]: ~6 ng/mL

B5: DL301 (antibody, V domains shown)
VH: QVQLQQSGADLVRPGTSVKVSCKASGYAFTNYLIEWIKQRPGQGLEWIGVMNPGSGGTHYSEKFRGKATLTADKSSSTAYMQLISLTSDDSAVYFCARSDYDYVTYAMDYWGQGTSVTVSS
VL: DIKMTQSPSSMYASLGERVTITCKASQDINSYLIWFQQKPGKSPKTLIYRTNRLVDGVPSRFSGSGSGQDYSLTISSLEYGDMGIYYCLQYDEFPFTFGSGTKLEIK
EC50 (read off the curve) [5]: ~4 ng/mL

B6: DL312 (antibody, V domains shown)
VH: EVKLVESGGGLVQPGGSLSLSCAASGFTFTDYYMNWVRQPPGKALEWLALIRNKANGYTTEYNASVKGRFTISRDNSQNILYLQMNALRAEDSATYYCARDSDGYYEYYFDYWGQGTTLTVSS
VL: DIQMTQSPSSLSASLGERVSLTCRASQEISDYLSWLQQKPDGTIKRLIFAASTLDSGVPKRFSGSRSGSDFSLSISSLESEDFADYYCLQYASYPYTFGSGTKLEIK
EC50 (read off the curve) [5]: ~5 ng/mL

B8: 6F11C10-Hz2 antibody (antibody, human IgG1, kappa, V domains shown)
VH: EVQLVQSGAEVKKPGASVKVSCKASGFTFTDYYMHWVRQAPGQSLEWMGLVYPYSGDISYAQKFQGRVTLTVDTSISTAYMELSRLRSDDTAVYYCARQGNYVNNAIDYWGQGTLVTVSS
VL: DIQMTQSPSSLSASVGDRVTITCKASQNVGNIIAWYQQKPGKSPKALIYLASYRYSGVPSRFSGSGSGTDFTLTISSLQPEDVATYFCQQYSDSPYTFGQGTKVEIKR
notes: Optimized humanized IgG1/kappa; also called 6FC11C0-Hz2; 6F11C10-Hz2-biotin
EC50 [6]: 17.2 ng/mL | EC50 [7]: 7.35 ng/mL | EC50 [8]: 30.1 ng/mL | EC50 [9]: 8.23 ng/mL | EC50 [10]: 10.8 ng/mL

The next lines start with the values.

EC50 [1]: 1.3 ng/mL | positive rate [2]: 6.3% | positive rate [3]: 0.67% | EC50 [4]: 1.25 ng/mL
B1: murine antibody 59B10D3 (antibody, V domains shown)
VH: EVKLEESGGGLVQPGGSMKLSCAASGFTFSDAWMDWVRQSPEKGLEWIAEIRNKANNHATYYTESVKGRFTISRDDSKSSVYLQMISLRPEDTGIYYCTRNNYGSTWTYYAMDYWGQGTSVTVSS
VL: DIQMTQTSSSLSASLGDRVTINCRASQDISNYLNWYQQKPDGTVKLLIYYTSRLHSGVPSRFSGSGSGTDYSLTISNLEHEDIATYFCQQGYTLPLTFGAGTNLELK
notes: Murine antibody purified from hybridoma supernatant

EC50 [1]: 1.68 ng/mL | positive rate [2]: 1.84% | positive rate [3]: 0.42% | EC50 [4]: 1.31 ng/mL
B4: murine antibody 87F7F10 (antibody, V domains shown)
VH: DVQLQESGPGLVKPSQSLSLTCSVTGYSITSDFYWNWIRQFPGNKLEWMGYITYDGSTNYDPSLKNRISITRDTSKNQFFLKLNSVTAEDTATYYCVYGDFNRHAMDYWGQGTSVTVSS
VL: DIVMSQSPSSLAVSAGEKVTMSCRSSQSLFNSRTRKNYLAWYQQKPGQPPKVLIYWASTRESGVPDRFTGSGSGTDFTLTISSVQAEDLAVYYCEQSFYLFTFGTGTKLEI
notes: as for B1

EC50 [1]: 7.59 ng/mL | positive rate [2]: 0.64% | positive rate [3]: 0.76% | EC50 [4]: 19.5 ng/mL
B7: murine antibody 6F11C10 (antibody, V domains shown)
VH: EVHLQQSGPVLVKPGPSVKISCKASGFTFTDYYMHWVKQSHGKSLEWIGLVYPYNGDISYNQKFKGKATLTVDTSSSTAYMELNSLTSEDSAVYYCARQGNYVNNAIDYWGQGTSVTVSS
VL: DIVMTQSQKFMSTSVGDRVSISCKASQNVGNIIAWYQQKPGQSPKALIYLASYRYSGVPDRFTGSGSGTDFTLTINNVQSEDLAEYFCQQYSDSPYTFGSGTKLEI
notes: as for B1

EC50 [1]: 56.7 ng/mL | positive rate [2]: 0.92% | positive rate [3]: 0.1% | EC50 [4]: 40.9 ng/mL
B9: murine antibody 55C11E4 (antibody, V domains shown)
VH: EVQLQQSGPVLVKPGASVKMSCKASGYTFTDYYMNWVKQSHGKSLEWIGVINPYNGGTNYSQKFKGKATLTVDKSSSTAYMELNSLTSEDSAVYYCARDSNYVGLLDYWGQGTSVTVSS
VL: DIVLTQSPATLSVTPGDSVSLSCRASQSISNNLHWYQQKSHESPRLLIKYASQSISGIPSRFSGSGSGPDFTLSIDSVETEDFGVYFCQQSNSWPYTFGGGTKLEIK
notes: as for B1
